A short description of data set [1]: Stability: remaining activity of recombinant versus native Dm-kinase after incubation at 37° C. The data set is classed as physicochemical. As to the method: The activity of the recombinant Dm-kinase compared to native, isolated Dm-kinase was determined. After different periods of incubation in 50 mM Tris 7.5+2.5 mM MgCl2 at 37° C. the remaining activity was determined.

Data set [2] is described as follows: Kinetic constants of the Drosophila kinase compared to known analogous enzymes. The data set is classed as biochemical. Conditions: versus hitherto known kinases, Kc values. From the text: Furthermore, […]; as a consequence, for the synthesis of the individual nucleosides it is no more necessary to have the corresponding specific kinase. Particularly advantageous is the low specificity for the synthesis of modified nucleoside analogues, such as dideoxynucleosides or base- or sugar-modified nucleosides. Base-modified nucleosides are for example 7-deaza-nucleosides, C-nucleosides and nucleotides labelled with reporter groups (dye, digoxigenin, biotin) at the base. Sugar-modified nucleosides are for example azathymidine, arabinosyl-thymidine. The specific activity kc of the kinase according to the invention is several times higher than that of the kinases known before. The activity of the enzyme was measured as described in the reference: Munch-Peterson et al. (1991) J. Biol. Chem. 266, 9032-9038. By this, a considerably lower amount of enzyme is necessary to synthesize the dNMPs. (factor 3.5-14000, cf. Kc values in table 1). The specificity constant (kc/KM) of the kinase according to the invention exceeds that of the hitherto known kinases by several powers and is in the region of the diffusion constant. This leads to the complete yield when the kinase is added to the d-NMP synthesis. They are higher by factor 2-6500 than the hitherto known kinases, s. FIG. 1. […]

Data set [3] can be described thus: Activity of the kinase from D. Melanogaster at different temperatures. The data set is classed as biochemical. Conditions: wide optimum. As to the method: The activity of the Dm-nucleoside kinase was determined at different temperatures. […] (see FIG. 6).
The activity test is described in reference No. 14.

B1: recombinant Dm-kinase: recombinant multifunctional deoxynucleoside kinase from Drosophila Melanogaster, expressed in E. coli (protein, UniProt Q9XZT6 1-250, looked up)
Deoxynucleoside kinase: MAEAASCARKGTKYAEGTQPFTVLIEGNIGSGKTTYLNHFEKYKNDICLLTEPVEKWRNVNGVNLLELMYKDPKKWAMPFQSYVTLTMLQSHTAPTNKKLKIMERSIFSARYCFVENMRRNGSLEQGMYNTLEEWYKFIEESIHVQADLIIYLRTSPEVAYERIRQRARSEESCVPLKYLQELHELHEDWLIHQRRPQSCKVLVLDADLNLENIGTEYQRSESSIFDAISSNQQPSPVLVSPSKRQRVAR
By half-life is commonly meant the time needed for the level to fall by half in the phase considered. B1: the “stability (remaining activity)” value in data set [1] (50 mM Tris 7.5+2.5 mM MgCl2, 37° C., without addition of BSA) is “remains stable”. Besides, the half-life is listed as 50 h in data set [1] (Tris buffer in the presence of MgCl2, 37° C.); 31 h in data set [1] (Tris buffer without MgCl2, 37° C.); 28 h in data set [1] (pure water). Moreover, the “factor by which specific activity kc exceeds known kinases (lower amount of enzyme necessary)” value in data set [2] is 3.5-14000. Further, the “temperature of maximum activity” value in data set [3] was determined as 60 °C.

B2: native Dm-kinase: native, isolated deoxynucleoside kinase from Drosophila Melanogaster, used for comparison (protein, UniProt Q9XZT6 1-250, looked up)
Deoxynucleoside kinase: MAEAASCARKGTKYAEGTQPFTVLIEGNIGSGKTTYLNHFEKYKNDICLLTEPVEKWRNVNGVNLLELMYKDPKKWAMPFQSYVTLTMLQSHTAPTNKKLKIMERSIFSARYCFVENMRRNGSLEQGMYNTLEEWYKFIEESIHVQADLIIYLRTSPEVAYERIRQRARSEESCVPLKYLQELHELHEDWLIHQRRPQSCKVLVLDADLNLENIGTEYQRSESSIFDAISSNQQPSPVLVSPSKRQRVAR
In general, remaining activity refers to the signal under treatment as a percentage of the control signal. For the molecule B2, the “stability (remaining activity)” value in data set [1] (50 mM Tris 7.5+2.5 mM MgCl2, 37° C., with 2.5 mg/ml BSA) is recorded as “remains stable”. In data set [1] (under the same conditions), the half-life is less than 0.2 h. Also, in data set [1] (within 50 min, 50 mM Tris 7.5+2.5 mM MgCl2, 37° C., without BSA), the remaining activity is on record as less than 20%.

These data come from patent publication US7625735B2, “Recombinant kinase from insect cells for the synthesis of nucleoside monophosphates” (Roche Diagnostic Operations, Inc., priority 1998, dated 2009).
